To fix the notation:
B1: H2-Kb / Ed33 (parent complex)
chain 1: SQLAEENSWALSVHEGESVTVNCSYKTSITALQWYRQKSGKGPAQLILIRSNEREKRNGRLRATLDTSSQSSSLSITATRCEDTAVYFCATDHNNAGAKLTFGGGTRLTVRP
chain 2: DAGVTQTPRHEVAEKGQTIILKCEPVSGHNDLFWYRQTKIQGLELLSYFRSKSLMEDGGAFKDRFKAEMLNSSFSTLKIQPTEPKDSAVYLCASSLYTNQAPLFGEGTRLSVL
chain 3: not shown
chain 4: IQKTPQIQVYSRHPPENGKPNILNCYVTQFHPPHIEIQMLKNGKKIPKVEMSDMSFSKDWSFYILAHTEFTPTETDTYACRVKHDSMAEPKTVYWDRDM
chain 5: SIINFEKL
B2: H2-Kb / Ed40 (parent complex)
chain 1: GDSVTQTEGPVTVSESESLIINCTYSATSIAYPNLFWYVRYPGEGLQLLLKVITAGQKGSSRGFEATYNKETTSFHLQKASVQESDSAVYYCALGDGYTGNYKYVFGAGTRLKVIA
chain 2: DSGVVQSPRHIIKEKGGRSVLTCIPISGHSNVVWYQQTLGKELKFLIQHYEKVERDKGFLPSRFSVQQFDDYHSEMNMSALELEDSAMYFCASSGASAETLYFGSGTRLTVL
chain 3: not shown
chain 4: B1 chain 4
chain 5: SIINFEKL
Note: test concentration or dose not given here.

One test covers variants of B1. Briefly: % of reporter cells activated (NFAT-GFP), raw.
In the case of chain 5 E6L, the ratio to parent amounted to 0.00458.
With chain 5 E6S, the ratio to parent turned out to be 0.0699.
On the same count and under the same terms, the result for chain 5 N4V reads 0.181; that for chain 5 N4M, 0.00151; that for chain 5 N4Y, 0.0163.
Take chain 5 N4I: the ratio to parent is 0.271.
Turning to chain 5 I3C, the ratio to parent is 1.02.
Still for that read-out and setting: with chain 5 I3A the figure was 1.03; with chain 5 L8T, 0.929; with chain 5 L8G, 0.87.
Still for that read-out and setting: with chain 5 L8V the figure was 0.815; with chain 5 S1T, 0.61.
The same measure, in the same setting: the result for chain 5 F5Y reads 1.04.
As to chain 5 F5L, the ratio to parent worked out at 0.916.
Same read-out and setting: with chain 5 F5M the figure was 1.09; with chain 5 K7D, 0.0503.
With chain 5 K7L, the ratio to parent was 0.0519.
Still for that read-out and setting: with chain 5 I2S the figure was 0.691; with chain 5 I2M, 1.08.
With chain 5 I2W, the ratio to parent came out at 0.738.

Variants of B2 are the subject of another test. Briefly: % of reporter cells activated (NFAT-GFP), raw.
Turning to chain 5 S1I, the ratio to parent is 0.597.
Still for that read-out and setting: the result for chain 5 S1H reads 0.914; that for chain 5 S1M, 0.993; that for chain 5 S1R, 0.532.
As to chain 5 S1A, the ratio to parent amounted to 1.01.
For chain 5 S1T, the ratio to parent was 0.92.
For chain 5 I3A, the ratio to parent was 0.28.
Still for that read-out and setting: with chain 5 I3K the figure was 0.791; with chain 5 I3P, 0.601.
Consider chain 5 I3H, for which the ratio to parent was determined as 0.67.
The same measure, in the same setting: with chain 5 I3E the figure was 0.545; with chain 5 I3S, 0.789.
Still for that read-out and setting: the result for chain 5 L8C reads 0.555.
Take chain 5 L8N: the ratio to parent turned out to be 0.645.
Still for that read-out and setting: the result for chain 5 L8S reads 0.681; that for chain 5 L8A, 0.816.
Still for that read-out and setting: the result for chain 5 L8R reads 0.785.
Regarding chain 5 L8I, the ratio to parent is 0.95.
On the same count and under the same terms, the result for chain 5 L8K reads 0.816.
As for chain 5 L8W, the ratio to parent came out at 0.787.
The same measure, in the same setting: the result for chain 5 N4Q reads 0.00152.
Still for that read-out and setting: the result for chain 5 N4V reads 0.00392; that for chain 5 N4K, 0.0365; that for chain 5 K7Q, 0.121.
On the same count and under the same terms, with chain 5 K7Y the figure was 0.444; with chain 5 K7C, 0.0448.
Turning to chain 5 K7H, the ratio to parent was found to be 0.754.
The same measure, in the same setting: with chain 5 K7N the figure was 0.163.
Take chain 5 K7G: the ratio to parent stood at 0.382.
Turning to chain 5 F5C, the ratio to parent came to 1.01.
For the variant chain 5 F5T, the ratio to parent came out at 1.22.
Still for that read-out and setting: with chain 5 F5H the figure was 1.06; with chain 5 F5Y, 1.11; with chain 5 F5V, 0.868.
chain 5 F5P: the ratio to parent is 0.944.
In the case of chain 5 F5A, the ratio to parent amounted to 0.944.
For chain 5 F5M, the ratio to parent amounted to 0.856.
As to chain 5 F5G, the ratio to parent was found to be 0.78.
The same measure, in the same setting: the result for chain 5 I2P reads 1.07; that for chain 5 I2K, 0.968.
On the same count and under the same terms, with chain 5 I2D the figure was 1.2.
For the variant chain 5 I2H, the ratio to parent is 0.7.
Same read-out and setting: the result for chain 5 I2W reads 0.654; that for chain 5 I2M, 0.913; that for chain 5 I2C, 1.02.
Still for that read-out and setting: the result for chain 5 I2Y reads 0.834.
The same measure, in the same setting: the result for chain 5 I2F reads 1; that for chain 5 E6M, 0.172.
Regarding chain 5 E6Y, the ratio to parent is 0.0704.
The same measure, in the same setting: the result for chain 5 E6K reads 0.634; that for chain 5 E6L, 0.11; that for chain 5 E6T, 0.0789.
On the same count and under the same terms, the result for chain 5 E6D reads 0.844; that for chain 5 E6V, 0.00511; that for chain 5 E6S, 0.162.

The values are drawn from article PMC11480844 (2024).
